B1: TPR t1 (parent)
chain: GACCAAUCUGCCCUCAGAGCUCGAGAACAUCUUCGGAUGCAGAGGAGGCAGGCUUCGGUGGCGCGAUAGCGCCAACGUCCUCAACCUCCAAUGCAUCCCACCACAUGAUGAUGCCUGAAGAGCCUUGGUUUUUUG

Experimental findings from the RNAGym collection of RNA variant scans (doi:10.1073/pnas.2313332121) are described below.

In the data set the parent is B1. Nature of the data set: polymerase ribozyme fitness, log enrichment relative to wild type (log ratio); higher = more active; in vitro selection for triplet polymerase activity. In short, it runs like this:
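Mutant libraries for each subunit of a heterodimeric triplet polymerase ribozyme were made by PCR and then transcribed. Each library underwent one round of in vitro selection in triplicate: annealing with a biotinylated primer, the partner subunit and triplets, frozen incubation at −7 °C, gel excision of extended constructs, streptavidin-bead capture and RT-PCR. Input and output libraries were Illumina-sequenced, and only genotypes with ≥10 input reads and ≥1 read per output were kept. Fitness is the logarithm, base 2, of genotype enrichment over wild-type enrichment, computed from inverse-variance-weighted replicate averages.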
In the case of GACCAAUCUGCCCUCAGAGCUCGAGAACAUCUUCGGAUGCAGAGGAGGCAGGCUUCGGUGGCGCGAUAGCGCGAACGUCCUCAACCUCCAAUGCAUCCCACCAGAUGAUGAUGCCUGAAGGGCCUUGGUUUUUUG, the “polymerase ribozyme fitness (log ratio)” value was -5.73.

On to GACCAAUCUGCCCUCAGAGCUCGAGAACAUCUUCGGAUGCAGAGGAGGCAGGCUUCGGUGGCGCGAUAGCGCCAACUUCCUCAACCUCCAAUGCAUCCCACCACAUGAUGAUGCCUAAAGAGCCUUGGUUUUUUG, for which the “polymerase ribozyme fitness (log ratio)” value was -1.62.

As for GACCAAUCUGCCCUCACAGCUCGAGAACAUCUUCGGAUGCAGAGGAGGCAGGCUUCGGUGGCGCGAUAGCGCCAACGUCCUCCACCUCCAAUGCAUCCCACCACAUGAUGAUGCCUGAGGAGCCUUGGUUUUUUG, the “polymerase ribozyme fitness (log ratio)” value was -1.01.

With GACCAAUCUGCCCUCAGAGCUCGAGAACAUCUUCGGAUGCAGAGGAGGCAGGCUUCGGUGACGCGAUAGCGCCAACGUCCUCAACCUCCAAUGCAUGCCACCACAUGAUAAUGCCUGAAGAGCCUUGGUUUUUUG, the “polymerase ribozyme fitness (log ratio)” value was -5.81.

For the variant GACCAAUCUGCCCUCAGAGCUCGAGAACAUCUUCGGAUGCAGAGGAGGCAGGCUUCGGUGGCGCGAUGGCGCCAACGUCCUCAACCUCCAAUGAAUCCCACCACAUGAUGAUGCCUGAAGAGCCUUGGUUUUUUG, the “polymerase ribozyme fitness (log ratio)” value is -5.05.

Turning to GACCAAUCUGCCCUCAGAGCUCGAGAACAUCUUCGGAUGCAGCGGAGGCAGGCUUCGGUGGCGCGAUAGCGCCAACGUCCUCAACCUCCAAUGCAUCCCACCACAUGAUGAUGCCUGAAGAGCCUUGGAUUUUUG, the “polymerase ribozyme fitness (log ratio)” value is -3.98.

As to GACCAAUCUGCCCACAGAGCUCGAGAACAUCUUCGGAUGCAGACGAGGCAGGCUUCGUUGGCGCGAUAGCGCCAACGUCCUCAACCUCCAAUGCAUCCCACCACAUGAUGAUGCCUGAAGAGCCUUGGUUUUUUG, the “polymerase ribozyme fitness (log ratio)” value is -2.72.

GACCAAUCUGCCCUCAGAGCUCGAGAACAUCUUCGGAUGCAGAGGAGGCUGGCUUCGGUGGCGCGAUAGCGCCAACGUCCUCAACCUCCAAUGCAUCCCACCACAGGAUGAUGCCUGAAGAGCCUUGGUUUUUUG: the “polymerase ribozyme fitness (log ratio)” value was -2.78.

On to GACCAAUCUGCCCUCAGAGCUCGAGAACAUCUUCGGAUGCAGAGGAGGAAGGCUUCGGUGGCGCGAUAGCGCCAACGUCCUCUACCUCCAAUGCAUCCCACCACAUGAUGAUGCCUGAAGAGCCUUGGUUUUUUG, for which the “polymerase ribozyme fitness (log ratio)” value is -0.343.

Take GACCAAUCUGCCCUCAGAGCUCGAGAACAUCUUCGGAUGCAGAGGAGGUAGGCUUCGGUGGUGCGAUAGCGCCAACGUCCUCAACCUCCAAUGCAUCCCACCACAUGAUGAUGCCUGAAGAGCCUUGGUUUUUUG: the “polymerase ribozyme fitness (log ratio)” value was -1.19.

Take GACCAAUCUGCCCUCAGAGCUCGAGAACAUCUUCGGAUGCAGAGGAGGCAGGCUUCGGUGUCGCGAUAGCGCCAACGUCCUCAACCUCCAAUGCAUCCCACCACAUGAUGAUGCCUGAAGCGCCUUGGUUUUUUG: the “polymerase ribozyme fitness (log ratio)” value is 1.94.

On to GACCAAUUUGCCCUCAGAGCUCGAGAACAUCUUCGGAUGCAGAGGACGCAGACUUCGGUGGCGCGAUAGCGCCAACGUCCUCAACCUCCAAUGCAUCCCACCACAUGAUGAUACCUGAAGAGCCUUGGUUUUUUG, for which the “polymerase ribozyme fitness (log ratio)” value was -3.3.

GACCAAUCUGUCCUCAGAGUUCGAGAUCAUCUUCGGAUGCAGAGGAGGCAGGCUUCGGUGGCGCGAUAGCGCCAACGUCCUCAACCUCCAAUGCAUCCCACCACAUGAUGAUGCCUGAAGAGCCUUGGUUUUUUG: the “polymerase ribozyme fitness (log ratio)” value was -5.92.

For GACCAAUCUGCCCUCAGAGCUCGAGAACAUCUUCGGAUGCAGAGGAGGCAGUCUUCGGUGGCGCGAUAGCGCCAACGUCCUGAACCUCCAAUGCAUCCCACCACAUGAUGAUGCCUGAAGAGCCUUGGUUUUUUG, the “polymerase ribozyme fitness (log ratio)” value is -2.18.

Turning to GACCAAUCUGCCCUCAGAGCUCGAGAACAUCUUCGGAUGCAGAGGAGCCAGGUCUCGGUGGCGCGAUAGCGCCAACGUCCACAACCUCCAAUGCAUCCCACCACAUGAUGAUGCCUGAAGAGCCUUGGUUUUUUG, the “polymerase ribozyme fitness (log ratio)” value is -2.99.

Consider GACCAAUCUGCCCUCAGAGCUCGAGAACAUCUUCGGAUGCAGAGGAUGCAGGCUUCGGUGGCGCGAUAGCGCCAACGUCCUCAACCUCCAAUGCAUCCCACCACAUGAUGACGCCUGAAGAGCCUUGGUUUUUUG, for which the “polymerase ribozyme fitness (log ratio)” value was -0.538.

As for GACCAAUCUGCCCUCAGAGCUCGAGAACAUCUUCGGAUGCAGAGGAGGCAGGCUUCGGUGGGGCGAUAGCGCCAACGUCCUCAACCUCCAAUGCAUCCCACCACAUGAUGAUGCCUGAAGAGCCUUGGUAUUUUG, the “polymerase ribozyme fitness (log ratio)” value was -1.59.

GACCAAUCUGCCCUCAGAGCUCGAGAACAUCUUCGGAGGCAGAGGAGGCAGGCUCCGGUGACGCGAUAGCGCCAACGUCCUCAACCUCCACUGCAUCCCACCACAUGCUUAUGCCUGAAGAGCAUCGGUUUUUUG: the “polymerase ribozyme fitness (log ratio)” value was -6.93.

GACCAAUCAGCCCUCAGAGCUCGAGACCAUCUUCGGAUGCAGAGGAGGCAGGCUUCGGUGGCGCGAUAGCGCCAACGUCCUCAACCUCCAAUGCAUCCCACCACAUGAUGAUGCCUCAAGAGCCUUGGUUUUUUG: the “polymerase ribozyme fitness (log ratio)” value is -5.71.

With GACCAAUCUGCCCUCAGAGCUCGAGAACAUCUUCGGAUGCAGAGGCGGCAGGCAUCGGUGGCGCGCUAGCGCCAACGUCCUCAACCGCCAAUGCAUCCCACCACAUGAUGAUUCCUGAAGAGCCUUGGUUUUUUG, the “polymerase ribozyme fitness (log ratio)” value is -5.68.

Take GACCAAUCUGCACUCAGAGCUCGAGAACAUCUUCGGAUGCAGAGGAGGCAGGCUUCGGUGGCGCGAUAGCGCCAACGUCCUCAACCUCCAAUGCAUCCCACCACAUGAUGAUGUCUGAAGAGCCUUGGUUUUUUG: the “polymerase ribozyme fitness (log ratio)” value was -1.85.
